Reference: patent publication US20170283834A1, “Processes for Producing A Fermentation Product Using A Fermenting Organism” (Novozymes A/S, priority 2014, published 2017)

B1: JTP005: protease variant of SEQ ID NO: 3: A112P (protein, listed as Thermoascus aurantiacus)
chain: MRLVASLTALVALSVPVFPAAVNVKRASSYLEITLSQVSNTLIKAVVQNTGSDELSFVHLNFFKDPAPVKKVSVYRDGSEVQFEGILSRYKSTGLSRDAFTYLAPGESVEDVFDIASTYDLTSGGPVTIRTEGVVPYATANSTDIAGYISYSSNVLTIDVDGAAAATVSKAITPLDRRTRISSCSGSRQSALTTALRNAASLANAAADAAQSGSASKFSEYFKTTSSSTRQTVAARLRAVAREASSSSSGATTYYCDDPYGYCSSNVLAYTLPSYNIIANCDIFYTYLPPLTSTCHAQDQATTALHEFTHAPGVYSPGTDDLAYGYQAAMGLSSSQAVMNADTYALYANAIYLGC
B2: JTP009: protease variant of SEQ ID NO: 3: D79K (protein, listed as Thermoascus aurantiacus)
chain: MRLVASLTALVALSVPVFPAAVNVKRASSYLEITLSQVSNTLIKAVVQNTGSDELSFVHLNFFKDPAPVKKVSVYRDGSEVQFEGILSRYKSTGLSRDAFTYLAPGESVEDVFDIASTYDLTSGGPVTIRTEGVVPYATANSTDIAGYISYSSNVLTIDVDGAAAATVSKAITPLDRRTRISSCSGSRQSALTTALRNAASLANAAADAAQSGSASKFSEYFKTTSSSTRQTVAARLRAVAREASSSSSGATTYYCKDPYGYCSSNVLAYTLPSYNIIANCDIFYTYLPALTSTCHAQDQATTALHEFTHAPGVYSPGTDDLAYGYQAAMGLSSSQAVMNADTYALYANAIYLGC
B3: JTP013: protease variant of SEQ ID NO: 3: D79L/S87P/A112P (protein, listed as Thermoascus aurantiacus)
chain: MRLVASLTALVALSVPVFPAAVNVKRASSYLEITLSQVSNTLIKAVVQNTGSDELSFVHLNFFKDPAPVKKVSVYRDGSEVQFEGILSRYKSTGLSRDAFTYLAPGESVEDVFDIASTYDLTSGGPVTIRTEGVVPYATANSTDIAGYISYSSNVLTIDVDGAAAATVSKAITPLDRRTRISSCSGSRQSALTTALRNAASLANAAADAAQSGSASKFSEYFKTTSSSTRQTVAARLRAVAREASSSSSGATTYYCLDPYGYCSPNVLAYTLPSYNIIANCDIFYTYLPPLTSTCHAQDQATTALHEFTHAPGVYSPGTDDLAYGYQAAMGLSSSQAVMNADTYALYANAIYLGC
B4: JTP016: protease variant of SEQ ID NO: 3: A73C (protein, listed as Thermoascus aurantiacus)
chain: MRLVASLTALVALSVPVFPAAVNVKRASSYLEITLSQVSNTLIKAVVQNTGSDELSFVHLNFFKDPAPVKKVSVYRDGSEVQFEGILSRYKSTGLSRDAFTYLAPGESVEDVFDIASTYDLTSGGPVTIRTEGVVPYATANSTDIAGYISYSSNVLTIDVDGAAAATVSKAITPLDRRTRISSCSGSRQSALTTALRNAASLANAAADAAQSGSASKFSEYFKTTSSSTRQTVAARLRAVAREASSSSSGCTTYYCDDPYGYCSSNVLAYTLPSYNIIANCDIFYTYLPALTSTCHAQDQATTALHEFTHAPGVYSPGTDDLAYGYQAAMGLSSSQAVMNADTYALYANAIYLGC
B5: JTP010: protease variant of SEQ ID NO: 3: D79L (protein, listed as Thermoascus aurantiacus)
chain: MRLVASLTALVALSVPVFPAAVNVKRASSYLEITLSQVSNTLIKAVVQNTGSDELSFVHLNFFKDPAPVKKVSVYRDGSEVQFEGILSRYKSTGLSRDAFTYLAPGESVEDVFDIASTYDLTSGGPVTIRTEGVVPYATANSTDIAGYISYSSNVLTIDVDGAAAATVSKAITPLDRRTRISSCSGSRQSALTTALRNAASLANAAADAAQSGSASKFSEYFKTTSSSTRQTVAARLRAVAREASSSSSGATTYYCLDPYGYCSSNVLAYTLPSYNIIANCDIFYTYLPALTSTCHAQDQATTALHEFTHAPGVYSPGTDDLAYGYQAAMGLSSSQAVMNADTYALYANAIYLGC
B6: JTP019: protease variant of SEQ ID NO: 3: A126V (protein, listed as Thermoascus aurantiacus)
chain: MRLVASLTALVALSVPVFPAAVNVKRASSYLEITLSQVSNTLIKAVVQNTGSDELSFVHLNFFKDPAPVKKVSVYRDGSEVQFEGILSRYKSTGLSRDAFTYLAPGESVEDVFDIASTYDLTSGGPVTIRTEGVVPYATANSTDIAGYISYSSNVLTIDVDGAAAATVSKAITPLDRRTRISSCSGSRQSALTTALRNAASLANAAADAAQSGSASKFSEYFKTTSSSTRQTVAARLRAVAREASSSSSGATTYYCDDPYGYCSSNVLAYTLPSYNIIANCDIFYTYLPALTSTCHAQDQATTVLHEFTHAPGVYSPGTDDLAYGYQAAMGLSSSQAVMNADTYALYANAIYLGC
B7: JTP012: protease variant of SEQ ID NO: 3: D79L/S87P (protein, listed as Thermoascus aurantiacus)
chain: MRLVASLTALVALSVPVFPAAVNVKRASSYLEITLSQVSNTLIKAVVQNTGSDELSFVHLNFFKDPAPVKKVSVYRDGSEVQFEGILSRYKSTGLSRDAFTYLAPGESVEDVFDIASTYDLTSGGPVTIRTEGVVPYATANSTDIAGYISYSSNVLTIDVDGAAAATVSKAITPLDRRTRISSCSGSRQSALTTALRNAASLANAAADAAQSGSASKFSEYFKTTSSSTRQTVAARLRAVAREASSSSSGATTYYCLDPYGYCSPNVLAYTLPSYNIIANCDIFYTYLPALTSTCHAQDQATTALHEFTHAPGVYSPGTDDLAYGYQAAMGLSSSQAVMNADTYALYANAIYLGC
B8: JTP014: protease variant of SEQ ID NO: 3: D79L/S87P/A112P (protein, listed as Thermoascus aurantiacus)
chain: MRLVASLTALVALSVPVFPAAVNVKRASSYLEITLSQVSNTLIKAVVQNTGSDELSFVHLNFFKDPAPVKKVSVYRDGSEVQFEGILSRYKSTGLSRDAFTYLAPGESVEDVFDIASTYDLTSGGPVTIRTEGVVPYATANSTDIAGYISYSSNVLTIDVDGAAAATVSKAITPLDRRTRISSCSGSRQSALTTALRNAASLANAAADAAQSGSASKFSEYFKTTSSSTRQTVAARLRAVAREASSSSSGATTYYCLDPYGYCSPNVLAYTLPSYNIIANCDIFYTYLPPLTSTCHAQDQATTALHEFTHAPGVYSPGTDDLAYGYQAAMGLSSSQAVMNADTYALYANAIYLGC
B9: JTP011: protease variant of SEQ ID NO: 3: D79M (protein, listed as Thermoascus aurantiacus)
chain: MRLVASLTALVALSVPVFPAAVNVKRASSYLEITLSQVSNTLIKAVVQNTGSDELSFVHLNFFKDPAPVKKVSVYRDGSEVQFEGILSRYKSTGLSRDAFTYLAPGESVEDVFDIASTYDLTSGGPVTIRTEGVVPYATANSTDIAGYISYSSNVLTIDVDGAAAATVSKAITPLDRRTRISSCSGSRQSALTTALRNAASLANAAADAAQSGSASKFSEYFKTTSSSTRQTVAARLRAVAREASSSSSGATTYYCMDPYGYCSSNVLAYTLPSYNIIANCDIFYTYLPALTSTCHAQDQATTALHEFTHAPGVYSPGTDDLAYGYQAAMGLSSSQAVMNADTYALYANAIYLGC
B10: JTP008: protease variant of SEQ ID NO: 3: R2P (protein, listed as Thermoascus aurantiacus)
chain: MRLVASLTALVALSVPVFPAAVNVKRASSYLEITLSQVSNTLIKAVVQNTGSDELSFVHLNFFKDPAPVKKVSVYRDGSEVQFEGILSRYKSTGLSRDAFTYLAPGESVEDVFDIASTYDLTSGGPVTIRTEGVVPYATANSTDIAGYISYSSNVLTIDVDGAAAATVSKAITPLDRRTPISSCSGSRQSALTTALRNAASLANAAADAAQSGSASKFSEYFKTTSSSTRQTVAARLRAVAREASSSSSGATTYYCDDPYGYCSSNVLAYTLPSYNIIANCDIFYTYLPALTSTCHAQDQATTALHEFTHAPGVYSPGTDDLAYGYQAAMGLSSSQAVMNADTYALYANAIYLGC

Tested on: zein
Assay: Relative activity assay of protease variants (zein micro titer plate)
Assay type: biochemical
Conditions: Table 2
Experimental: Each well contains 200 microL of 0.05-0.1% of zein (Sigma), 0.25 mM ZnSO4 and 1% of agar in 20 mM sodium acetate buffer, pH 4.5.
Yeast clones on SC-glucose were inoculated to a well of a 96-well micro titre plate containing YPD+Zn medium and cultivated at 28° C. for 3 days. The culture supernatants were applied to a 96-well zein micro titer plate and incubated at at least 2 temperatures (ex. 60° C. and 65° C., 70° C. and 75° C., 70° C. and 80° C.) for more than 4 hours or overnight. The turbidity of zein in the plate was measured as A630 and the relative activity (higher/lower temperatures) was determined as an indicator of thermoactivity improvement. The clones with higher relative activity than the parental variant were selected and the sequence was determined.

Point of comparison: B6, “Relative activity 65° C./60° C.” value 69%. Against it:
- B1 — lower, 43%
- B2 — the same, 69%
- B3 — higher, 90%
- B4 — lower, 52%
- B5 — higher, 75%
- B7 — higher, 86%
- B8 — higher, 88%
- B9 — higher, 73%
- B10 — higher, 71%
